Our source for the protein production values is a protein production outcome set (Wang et al. 2014).

This data set can be described thus: label from the status in PepcDB records.
For “MELLKLNRSVQGTGPGPGASLCRPGAPLLNSSSVGNLSCEPPRIRGAGTRELELAIRITLYAVIFLMSVGGNMLIIVVLGLSRRLRTVTNAFLLSLAVSDLLLAVACMPFTLLPNLMGTFIFGTVICKAVSYLMGVSVSVSTLSLVAIALERYSAICRPLQARVWQTRSHAARVIVATWLLSGLLMVPYPVYTVVQPVGPRVLQCVHRWPSARVRQTWSVLLLLLLFFIPGVVMAVAYGLISRELYLGLRFDGDSDSDSQSRVRNQGGLPGGAGPREQNLGEADVWRATGPAGVGGTEMKVRVRRKLEMELSWERRSGGDWAGDWGDSPFSLTAHPLCSGAVHQNGRCRPETGAVGEDSDGCYVQLPRSRPALELTALTAPGPGSGSRPTQAKLLAKKRVVRMLLVIVVLFFLCWLPVYSANTWRAFDGPGAHRALSGAPISFIHLLSYASACVNPLVYCFMHRRFRQACLETCARCCPRPPRARPRALPDEDPPTPSIASLSRLSYTTISTLGPG”, the protein production result was “failed”.

With “MELLLSKVTDAGIDPSSVSGEEAITLWEHIGRHIASTSREKAHCLIISAEYRREIKQLCDSIEELRQALELLSLPEDVEDILSVKASLSERLVEVGDYNSALTEYIASTNIAVEYGFIDEYVLAIIGMGNLCDAYGDHNRALRYYQKIDAIDHAISSRSLRLRYKLYMLACYISLKRVAEASELLGECEELSILVSDKNLAAQTHLYRAKLHRLQEEYSEALLSISSIKYTTGSATTYWLSTMVKIETAYCLNGVGHTSLANLLLESIGKRIKKHSSPILAKRFYNAMSKVSASQGQFQQALSCEKRAFRIESDLIKHIPISELGAAQLRRLSRFELQLKLILSEIENKELKETTKQHKNTVAQLQQDVFTDPLTSLHNRRWLEVKLKDMLLHDTPFALMVIDIDHFKSINDELSHLVGDKAIKSVSQELAAYFKFKGASCVRFGGEEFLVILENSQLERAEMHAENYRERIFKYAWRDILGERGLTVSIGITLHREGENTQRTFYRADKALYRAKANGRNQVCTEL”, the protein production result is “failed”. The entry for “MELLNVLAAAFGAFALGSVWYMVLAEPWMQDAKVPRGPDGRPEGGMTPGIFAASFVLQLIVAGMMRHVFALSGIDSPGAGIVAGIGVGLFFIAPWITLNNLYGMRPLRLSLIDGGYATLACAVMGLILTLF” is “failed”. Next, “MELQDTIFKRQSVRKFKNQDVSDEDILKMIKAAGAAPSGKNIQNWHFVVIKRRDLMEKIADVITKKQQEILVEMDKVSVDKANRFRKFVKNFTLFYLKAPVLVLVFTKVYNPSGYYELELIDAPKETIDKLFIRNPGMQSLGAAIENFTLSAIELGYGSCWLTSQNYAADEIEAVLEAETGFEKGEYFLGAMLALGVPEDNLKSPSKKPVEEICTFIK”: “not failed”; “MELRDRIDFLCKTILAIKTAGRLVLGIDGLSRSGKTTLANQLSQTLREQGISVCVFHMDDHIVERAKRYHTGNEEWFEYYYLQWDVEWLTHQLFRQLKASHQLTLPFYDHETDTHSKRTVYLSDSDMIMIEGVFLQRKEWRPFFDFVVYLDCPREIRFARENDQVKQNIQKFINRYWKAEDYYLETEEPIKRADVVFDMTS”: “not failed”.

As to “MELRPSGDSGSSDVDAEISDGFSPLDTSHRDVADEGSLLRRAEMYQDYMKQVPIPTNRGSLIPFTSWVGLSISMKQLYGQPLHYLTNVLLQRWDQSRFGTDSEEQRLDSIIHPTKAEATIWLVEEIHRLTPSHLHMALLWRSDPMYHSFIDPIFPEK”, the protein production entry was “not failed”.

As to “MELSAVGERVFAAESIIKRRIRKGRIEYLVKWKGWAIKYSTWEPEENILDSRLIAAFEQKERERELYGPKKRGPKPKTFLLKARAQAEALRISDVHFSVKPSASASSPKLHSSAAVHRLKKDIRRCHRMSRRPLPRPDPQGGSPGLRPPISPFSETVRIINRKVKPREPKRNRIILNLKVIDKGAGGGGAGQGAGALARPKVPSRNRVIGKSKKFSESVLRTQIRHMKFGAFALYKPPPAPLVAPSPGKAEASAPGPGLLLAAPAAPYDARSSGSSGCPSPTPQSSDPDDTPPKLLPETVSPSAPSWREPEVLDLSLPPESAATSKRAPPEVTAAAGPAPPTAPEPAGASSEPEAGDWRPEMSPCSNVVVTDVTSNLLTVTIKEFCNPEDFEKVAAGVAGAAGGGGSIGASK”, the protein production result is “failed”. Next, “MELSRGASAPDPDDVRPLKPCLLRRNHSRDQHGVAASSLEELRSKACELLAIDKSLTPITLVLAEDGTIVDDDDYFLCLPSNTKFVALACNEKWTYNDSDGGTAWVSQESFEADEPDSRAGVKWKNVARQLKEDLSSIILLSEEDLQALIDIPCAELAQELCQSCATVQGLQSTLQQVLDQREEARQSKQLLELYLQALEKEGNILSNQKESKAALSEELDAVDTGVGREMASEVLLRSQILTTLKEKPAPELSLSSQDLESVSKEDPKALAVALSWDIRKAETVQQACTTELALRLQQVQSLHSLRNLSARRSPLPGEPQRPKRAKRDSS”: “not failed”; “MELTTDIGGRSAAGVDRAPAGATSRTALWTGRVLSGLAIAFLAFDALGKLMRAAPVLEGSQQLGYPLDTVVGIGATLLACVVLYAIPRTAALGAILLTGYLGGAVATHVRVGNPLFSHVLFPTYVGALIWGGLVLRDRRLLAALLRGRARAAEEEA”: “failed”.

For “MELWLVRHGETLWNREGRLLGWTDLPLTAEGEAQARRLKGALPSLPAFSSDLLRARRTAELAGFSPRLYPELREIHFGALEGALWETLDPRYKEALLRFQGFHPPGGESLSAFQERVFRFLEGLKAPAVLFTHGGVVRAVLRALGEDGLVPPGSAVAVDWPRRVLVRLALDGEEATG”, the protein production entry was “not failed”. The entry for “MENFDEVIKEYQKYLEGKEKTHKINSCKHPCCEEDNLKSVKNYFKVYHKKYIPSIIQKKKKERNEHAPPLLKDIQDKRCTNVFERLNDKQFYTGVQKTKFMELLKNNKNKSSYCYNNIKVFSTMLKKPCNYVVTPGTLGIQKYGIQTGRPKTIFLFNNEKKYDKGVYFLVKSYIKNIKSLCYEITKILQPSIGPTRKIYDQNFSLVRNVNDLINGGKYLCTSGDPPAPIRNLSLHFLT” is “failed”; for “MENGFFVKINYRIYTTFSEKHGIILSIISKKENPMAIYFGTYTKRESKGIYKANFDSETGQLSNLELVTEEPNPTYLAFDKAGHLYSVGAENGLGGIAAFNTDYTLLNHVVSEGAPLCYVAVDEARDLVYGSNFHKGQLLVYKRLADGSLELADVAQHEGSGPHENQASAHVHFSDLTPDKFLVTCDLGCDQVVTYKVSDQGKVEKIATYQAAPGSGPRHIVFHTVAKIAYLICELNSTIEVLIYDGWGQFEHLQTVSTLPEDHTGFNGTAAIRITKDGKFIYGSNRGNDSIAVYKTLADASLELVEIVPTNGKTPRDFTLSPDEKHLIVVHQDSDNATVFKRDAENGCLTELSHDFYVPEAVCVTFL” it is “failed”; for “MENHSHANTHTDTRTDDKSTKIVRLLGLIGGALIALVIYYALNSQMPHIVEEIPKLSSLNYKAMPVVAGVAVLMGIWWMTEAIDLPATALLPLVLFSVFSVDQFASVSSSYASPIIFLFMGGFILALSMQKWNLHTRIALSIILLVGTSPRRLILGFMMATGFLSMWVSNTATAVMMLPVGMSVLQLVAKLVGKEDASNSWHQKEEITKAHGGIMSNIVHKGKDITQVIQEKTTIYRTNFSICLMLGIAYAASIGSLGTLIGTPPNALLAGYMKTAFNIEIDFAQWMVFGTPLAFIMLILAWLLLTYVIFPLKIKEIPGGKEVIRVELKKLGRLSQAEISVGIIFILASLGWIFLGVMLKSWGVKIDKIDSVIAMGVSALLFILPANHQGDRLIDWGVAKKLPWDVLLLFGGGLALSAQFSKTGLSLWIGHLVSGFSHLPILFIIVMVTLMVIFLTEITSNTATAAAFLPVIGGVAMGMGYENHQSLLLTIPVALSATCAFMLPVVTPPNAIAYGSGYVKITDMIKAGLWLNLVGVVLISTFSYFLVSLIFN” it is “failed”. Next, “MENKKMNLLLFSGDYDKALASLIIANAAREMEIEVTIFCAFWGLLLLRDPEKASQEDKSLYEQAFSSLTPREAEELPLSKMNLGGIGKKMLLEMMKEEKAPKLSDLLSGARKKEVKFYACQLSVEIMGFKKEELFPEVQIMDVKEYLKNALESDLQLFI”: “not failed”. The entry for “MENLLARLLFAQWFPGLIQLKNYQKEWLVNDFRAAFSVVAVALPVAIAYAQLTGVSAIVGLYSCVLPMLVYALMGTSRQLIVGPDAATCAVIAAVVTPIAAGDPTKHWQLVMTMTAMTGIWCVLASRFKLGIFADFLSRPILLGLLNGVALTIIVGQFAKVVGLKYEQRYLLERLWEAPQRLAELHWPTVALSVATVVVYLVTKRYRPTWPAAMLAILVTTASVWLLHLQEMDVAVVGLTQGGFPQFQAPQFELGEVRELVVPALNLAIVSFVSMMLTARSFAAKNGYDIDANKEFQALGFANIASAFSQGFAISGADSRTAVNDANGGKSQLVSIVAAITIAIIAVFIYEPLQFIPIASLGVVLIIASLSLLDLKAIWILKTRDKDAFYLAIITFISVLVIGVIPGITLAVLLGLFQFLRIVMRPSDQLLGLDEKGTIRTIDETGKASPIPGMVIYRFNSPLTYFNAPYFKRRLLEHAEQNKDVSCVVVDAVSSFTHLDLSVMATLADIHEVLKKRGIRLVLAGRKRRLRQWCELTGISTSEGGILLRADMYLAIKLSGSYLSAVGEGIVPTVQKEPDLEQPPKPIPEVA” is “failed”; for “MENPDSAFLLFRNAPRLPLATMHTPLCGDSHQPDFAFRKPARDALLRPWNGRNHRCGLQDGREICQGQLPAHQKSYWSDCAALPRLFRAYGGAVVRGFLIVGNKAFTQPFSLNDLPGAGRMDVLCRCTSQALFISHGIRRDVEVYLLLLGPPSPPKSILIKGDEVRRMSPDERNVAGHIKKALAVECGKSWKKVHSGVYVSRKGLEELIEELSEKYSIIYLKEDGVDISNAQLPPNPLFVIGDHEGLTEEQEKVVERYAALKLSLSPLSLLAEQCVVIAHHHLDRLQF” it is “failed”; for “MENRKLAVLIDADNAQSSLIAELLAEVAKYGTAIVKRAYGDWTTTQLKGWKEVLHQYAISPIQQFAYTKGKNSTDSALIIDAMDLLYTGNFDGFCLVSSDSDFTRLATRLREGGLTVIGLGEQSKTPRPFIAACDKFVFTEILRPAPPAKPKPETAATADKPKARSSRTRAKAAPHKEKHPLQDMFTSAIEAVARDSGWAELSAVGSYLAKNDPSFDPRNWGHGRLSQMVKKLDFLTVQESRNGSKLHSEIRLRHDGEAAVAEPAAPVETPQPSPSEEAAPPPRKKRSPRKKISPAGLEHHHHHH” it is “failed”. Take “MENSGAYTFETIAREWHESNKRWSEDHRSRVLRYLELYIFPHIGSSDIRQLKTSHLLAPIKEVDTSGKHDVAQRLQQRVTAIMRYAVQNDYIDSNPASDMAGALSTTKARHYPLEHHHHHH”: the protein production result is “not failed”. “MENTKKSPTYVYALGGLEEIGKNTYVVEHEDEIILIDAGIKFANASLPGFDGTVANFDYLIKNNHKIHSLVVTHGHEDHIGGIPHILRHVKIKTIYAPTLAAKLIERRLSEYKDIKPPRIIVFEDESMYKTKYFEVDFYRVCHSIPDSFGICVKTPNGYIVTTGDFRFDFATAGDETNLAKISQISNRGISVLMCESTSAEIPGFSESERYVIDNIRDYMVNIKGRTFISTFASNLGRVEEIIAIAVGLNKKICIIGKSMEANIKTSRKLGYLNVPESSFITHKELPFYKDHEIVVILTGSQGEKMAALNVMANNNHSKITLKPSDTIILSSNPIPGNYAQVEAMVNKLYKLGLTVYENSPNKKIHASGHATRSEHQLMIKAINPSYLFPIHGEYKMFRALKQNAVDQGFDKDHVIIAPNGQKLQLLDGVLSHTNIYVDAEPKFINGYEISSKISKLLSERVVLSSDGILNLVLNADFKKAKLNSAVSISTRGCFFAKESTNLINKISNVAKSSLEEALAKKEFDEKKLKEIVSGNVKSIVWKWRKKNPIINVTIINNDLVEQFRKDNNYVEFIKQAEVEEIEQEVDIDDLISNGL”: the protein production entry is given as “failed”. For “MENVKKCKNFLSTLIKLASSGKQSTETAANVKELVQNLLDGKIEAEDFTSRLYRELNSSPQPYLVPFLKRSLPALRQLTPDSAAFI”, the protein production result is recorded as “failed”.
